The source of these data is patent US20230106715A1 (BIOSION, published 2023).

Test [1] deals with T1, human Siglec15-mouse Fc protein (human).
T1 construct: In house made
T1 chain: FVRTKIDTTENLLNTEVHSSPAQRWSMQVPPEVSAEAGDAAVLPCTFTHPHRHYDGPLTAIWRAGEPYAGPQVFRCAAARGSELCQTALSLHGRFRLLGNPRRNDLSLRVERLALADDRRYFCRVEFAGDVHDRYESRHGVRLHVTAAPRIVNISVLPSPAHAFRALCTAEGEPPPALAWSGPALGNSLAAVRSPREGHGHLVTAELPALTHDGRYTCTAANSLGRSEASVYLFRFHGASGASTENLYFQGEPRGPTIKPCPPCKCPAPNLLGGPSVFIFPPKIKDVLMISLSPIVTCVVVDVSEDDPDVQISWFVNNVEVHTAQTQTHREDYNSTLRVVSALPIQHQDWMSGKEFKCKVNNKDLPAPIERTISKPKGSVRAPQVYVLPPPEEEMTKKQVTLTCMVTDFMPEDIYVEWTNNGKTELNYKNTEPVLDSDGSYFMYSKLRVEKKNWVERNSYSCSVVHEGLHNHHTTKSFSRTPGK
Kind of test: cell based blocking FACS: human Siglec15-mouse Fc in solution, blocked ligand human LRRC4C on LRRC4C-3F12-1B9 cells. As for the experimental part: The activities of the anti-Siglec15 antibodies to block binding of Siglec15 protein to cell surface LRRC4C were evaluated by Flow Cytometry (FACS), using in house made LRRC4C-3F12-1B9 cells. Briefly, HEK-293 cells (ATCC #CRL-1573) were transfected with pCMV-T-P plasmid constructs with the nucleotide sequence encoding human LRRC4C (amino acid residues Met1-Ile640 of uniprot #Q9HCJ2) inserted between EcoRI and XbaI, following the instruction of lipofectamine 3000 transfection reagent (Thermo Fisher). A stable cell named LRRC4C-3F12-1B9 was chosen for subsequent cell based ligand-blocking assay.
Briefly, the anti-Siglec15 antibodies of the disclosure or controls were diluted with human Siglec15-mouse Fc protein (prepared in-house with SEQ ID NO: 26, 8 μg/ml […] in FACS buffer), starting at 66.67 nM with a 5-fold serial dilution, and incubated at room temperature for 40 minutes. Then, LRRC4C-3F12-1B9 cells were harvested from cell culture flasks, washed twice and re-suspended in PBS containing 2% v/v Fetal Bovine Serum (FACS buffer). Then, 1×10⁵ cells per well in 96 well-plates were incubated in 100 μL of the antibody/Siglec15-mouse Fc mixtures for 40 minutes at 4° C. […] Cells were washed twice and re-suspended in FACS buffer. Fluorescence was measured using a Becton Dickinson FACS Canto II-HTS equipment. Data was analyzed using Graphpad Prism software and IC₅₀ values were reported.

Test [2] addresses T2, human Siglec15-Fc protein (human).
T2 construct: In house made; also called recombinant human Siglec15 protein with human IgG1 Fc at the C-terminus
The experiment in a line: competitive ELISA: coated human Siglec15-Fc, blocked ligand biotin-labeled human LRRC4C-Fc. As for the experimental part:
Serially diluted anti-Siglec15 antibodies or the controls (starting at 66.67 nM with a 5-fold serial dilution) in PBST with 2.5% w/v non-fatty milk were added to the Siglec15-Fc bound plates, 100 μl per well, and incubated with the human Siglec15-Fc protein at 37° C. for 40 minutes. Plates were washed 4 times again using wash buffer, then added and incubated for 40 minutes at 37° C. with 100 μl/well 290 ng/ml biotin-labeled human LRRC4C-Fc protein (prepared in-house with SEQ ID NO: 23). Plates were washed again using wash buffer. Thereafter, the plates were added with 100 μl/well streptavidin conjugated HRP (1:5000 dilution in PBST buffer, Jackson Immunoresearch, Cat #016-030-084) and incubated for 40 minutes at 37° C. Plates were washed again using wash buffer. Finally, TMB was added and the reaction was stopped using 1M H₂SO₄, and the absorbance of each well was read on a microplate reader using dual wavelength mode with 450 nm for TMB and 630 nm as the reference wavelength, then the OD (450-630) values were plotted against antibody concentration. Data was analyzed using Graphpad Prism software and IC₅₀ values were reported.

Test [3] has as its target T3, mouse Siglec15-his protein (mouse).
T3 construct: In house made
T3 chain: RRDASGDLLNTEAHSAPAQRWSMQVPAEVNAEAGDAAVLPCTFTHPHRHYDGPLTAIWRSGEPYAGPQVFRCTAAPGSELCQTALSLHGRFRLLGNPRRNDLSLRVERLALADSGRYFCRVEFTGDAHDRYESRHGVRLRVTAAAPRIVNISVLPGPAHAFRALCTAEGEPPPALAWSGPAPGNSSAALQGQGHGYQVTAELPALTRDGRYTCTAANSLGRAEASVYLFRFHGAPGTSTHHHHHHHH
Kind of test: indirect ELISA on coated mouse Siglec15-his. As for the experimental part: The anti-Siglec15 antibodies' cross-reactions to cynomolgus or mouse Siglec15 proteins were measured. Briefly, 96-well micro plates were coated with 100 μl of 2 μg/ml cynomolgus Siglec15-his protein (in house made with SEQ ID NO: 21), or 2 μg/ml mouse Siglec15-his protein (in house made with SEQ ID NO: 22) in carbonate/bicarbonate buffer (pH 9.6) for 2 hours at 37° C. ELISA plates were washed once with wash buffer (PBS+0.05% v/v Tween-20, PBST) and then blocked with 200 μl/well blocking buffer (5% w/v non-fatty milk in PBST) overnight at 4° C. Plates were washed 4 times and incubated with 100 μl serially diluted anti-Siglec15 antibodies of the disclosure or controls (starting at 66.7 nM, 5-fold serial dilution in PBST with 2.5% w/v non-fatty milk) for 40 minutes at 37° C. […] The reaction was stopped 4 minutes later at room temperature with 50 μl 1M H₂SO₄, and the absorbance of each well was read on a microplate reader using dual wavelength mode with 450 nm for TMB and 630 nm as the reference wavelength, then the OD (450-630) values were plotted against antibody concentration. Data was analyzed using Graphpad Prism software and EC₅₀ values were reported.
(An ELISA detects its analyte on a solid surface through an enzyme-linked reagent.)

Broadly, the IC50 is the concentration that gives 50% inhibition. The EC50 is the concentration at which the effect is half-maximal.

B1: anti-Siglec15 benchmark (ch5G12) (antibody, human IgG1, kappa, V domains shown)
VH: QVQLQQPGAELVKPGASVKMSCKASGYTFTSYWITWVIQRPGQGLEWIGDIYCGSDTMHYNEKFKNKATLTVDTSSSTAYMQLSSLTSEDSAVYYCARWWDYGSSYDYFDYWGQGTTLTVSS
VL: DIKMTQSPSSMYASLGERVTITCKASQDINSYLSWFQQKPGKSPKTLIYRANRLVDGVPSRFSGSGSGQDYSLTISSLEYEDMGIYYCLQYDEFPYTFGGGTKLEIKR
notes: ch5G12 (US 20190202912A1); also called BM; Siglec15-ch5G9
Consider B1, for which the IC50 is 707 pM in test [1] and 855 pM in test [2]. Also, the EC50 in test [3] amounted to 419 pM.
